Values of other authors in patent US12377186B2, “Antimicrobial biopolymer compositions, methods of synthesis, and applications of use” (ARIZONA BOARD OF REGENTS ON BEHALF OF THE UNIVERSITY OF …, priority 2018, dated 2025).

Settings: cited from earlier work

Substance: [(VPGAG)2 (VPGYG)1 (VPGAG)2]36 [ELP (A2Y1A2)36]
- Tt, experimental of ELP (Tyr) (180 ELP pentapeptide repeats, according to previous research by Ingrole et al.): 25 °C
- change in Tt when fused to a hydrophilic peptide (relative to the smaller ELP(A2Y1A2)24): less change in Tt
